The results in this text go back to patent US20210347908A1 (ELPISCIENCE SUZHOU BIOPHARMA, published 2021).

In experiment [1] the target is T1, full length cyno SIRPα stably expressed on CHOK1 cells (cynomolgus monkey, UniProt A0A2K5VYQ9 31-507).
T1 construct: whole, on cells; also called CHOK1-cyno SIRPα-2A2 cells; CHOK1-cyno SIRPα
T1 sequence: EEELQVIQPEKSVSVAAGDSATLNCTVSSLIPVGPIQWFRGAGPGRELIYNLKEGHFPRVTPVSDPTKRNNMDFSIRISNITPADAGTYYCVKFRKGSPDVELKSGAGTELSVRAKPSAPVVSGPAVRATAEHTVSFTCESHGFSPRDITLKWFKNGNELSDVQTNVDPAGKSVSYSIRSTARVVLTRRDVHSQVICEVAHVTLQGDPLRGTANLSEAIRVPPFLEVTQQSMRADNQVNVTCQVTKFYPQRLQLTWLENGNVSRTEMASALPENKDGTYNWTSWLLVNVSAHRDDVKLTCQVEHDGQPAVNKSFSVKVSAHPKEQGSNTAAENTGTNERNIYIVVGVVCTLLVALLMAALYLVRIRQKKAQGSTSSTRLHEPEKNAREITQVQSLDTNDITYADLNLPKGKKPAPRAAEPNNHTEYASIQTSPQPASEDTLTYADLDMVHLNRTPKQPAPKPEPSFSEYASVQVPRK
In words: FACS on CHOK1 cells. Put shortly: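 Geometric median fluorescence gave EC50 values. CHOK1 lines stably carrying full-length SIRPα (2×10⁵ cells) were incubated with antibody for 1 h at 4 °C, washed, and stained with labelled anti-mouse or anti-human IgG for 1 h at 4 °C.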

The target in experiment [2] is 6×His tagged human SIRPα v2 ECD recombinant protein (human). The experiment is described as follows: SPR (Biacore), antibody captured. Here is the method: (§1) Anti-SIRPα chimeric antibodies were characterized for binding affinity against human SIRPα v1, human SIRPα v2 and C57BL/6 mouse SIRPα using Biacore (GE). Briefly the antibodies to be tested were captured to CM5 chip (GE) using Human Antibody Capture Kit (GE). The antigens of 6×His tagged human SIRPα v1, human SIRPα v2 and C57BL/6 mouse SIRPα ECD recombinant proteins were serially diluted for multiple doses and injected at 30 μl/min for 180 s. Buffer flow was maintained for dissociation of 400 s. 3 M MgCl₂ was used for chip regeneration. The association and dissociation curves were fit with 1:1 binding model, and the Ka/Kd/KD values for each antibody were calculated.
Chain of 6×His tagged human SIRPα v2 ECD recombinant protein (human) (chain, as listed by the source): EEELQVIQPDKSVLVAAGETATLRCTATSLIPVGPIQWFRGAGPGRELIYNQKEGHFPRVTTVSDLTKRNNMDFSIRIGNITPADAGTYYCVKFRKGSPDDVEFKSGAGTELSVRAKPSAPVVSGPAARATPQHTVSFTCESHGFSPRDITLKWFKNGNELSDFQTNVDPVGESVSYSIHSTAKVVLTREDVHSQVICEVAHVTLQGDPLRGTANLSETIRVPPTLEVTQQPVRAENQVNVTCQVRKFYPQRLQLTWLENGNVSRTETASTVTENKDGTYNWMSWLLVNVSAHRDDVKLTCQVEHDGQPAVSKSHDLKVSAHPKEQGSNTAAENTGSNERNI

Experiment [3] concerns the target T2, 6×His tagged human SIRPα v1 ECD recombinant protein (human, UniProt P78324 31-373).
T2 construct: extracellular domain; bought; also called hSIRPα V1 (SPR antigen)
The experiment is described as follows: SPR (Biacore), antibody captured. As to the method:
as §1

Experiment [4] addresses T3, 6×His tagged C57BL/6 mouse SIRPα ECD recombinant protein (mouse (C57BL/6), UniProt P97797 32-373).
T3 construct: extracellular domain; bought; also called mSIRPα (C57BL/6); mouse SIRPα (C57BL/6) ECD
T3 sequence: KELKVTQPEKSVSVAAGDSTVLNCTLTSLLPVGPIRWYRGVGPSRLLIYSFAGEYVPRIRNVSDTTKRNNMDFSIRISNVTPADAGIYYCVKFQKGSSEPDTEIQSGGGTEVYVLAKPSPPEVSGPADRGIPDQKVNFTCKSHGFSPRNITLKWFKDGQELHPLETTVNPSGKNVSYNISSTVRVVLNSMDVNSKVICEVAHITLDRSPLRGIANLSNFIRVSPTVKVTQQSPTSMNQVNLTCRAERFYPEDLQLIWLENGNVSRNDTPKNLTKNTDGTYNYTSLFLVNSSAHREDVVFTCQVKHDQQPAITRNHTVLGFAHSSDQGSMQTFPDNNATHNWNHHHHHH
The experiment is described as follows: SPR (Biacore), antibody captured. As to the method:
as §1

The target in experiment [5] is T4, biotin labeled soluble human SIRPα v1 ECD recombinant protein (human, UniProt P78324 31-373, biotin labeled).
T4 construct: extracellular domain
T4 sequence (P78324 31-373): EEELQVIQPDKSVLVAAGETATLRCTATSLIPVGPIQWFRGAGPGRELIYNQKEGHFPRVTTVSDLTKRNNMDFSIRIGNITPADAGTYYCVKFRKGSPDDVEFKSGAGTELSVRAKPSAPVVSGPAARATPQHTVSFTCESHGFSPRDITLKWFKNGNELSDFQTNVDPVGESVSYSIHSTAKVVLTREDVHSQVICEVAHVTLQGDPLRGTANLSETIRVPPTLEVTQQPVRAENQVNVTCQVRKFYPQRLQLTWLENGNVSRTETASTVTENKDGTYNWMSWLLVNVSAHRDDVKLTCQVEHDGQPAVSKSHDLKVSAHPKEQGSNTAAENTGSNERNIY
The experiment is described as follows: competitive ELISA; competitor 001. Here is the method:
(§2) Competitive ELISA assay was used for epitope binning of 9 functional antibodies. Briefly excessive competitor antibody and biotin labeled soluble human SIRPα v1 ECD recombinant protein were co-incubated with ELISA microplate coated antibody. After washing, HRP-SA was added and incubated at 37° C. for 1 hour. Then, […] of TMB solution (Biotechnology) was added. After incubation for 15 minutes at room temperature, the reaction was stopped by the addition of […] of 1N HCl. OD 450 nm was read. Competition ratio was calculated. The antibodies that can compete each other for binding to SIRPα have the similar binding epitope.

Experiment [6] has as its target T4, biotin labeled soluble human SIRPα v1 …. In words: competitive ELISA; competitor 002. As to the method: as §2
Experiment [7] has the same target. The experiment is described as follows: competitive ELISA; competitor 032. Here is the method: as §2
Experiment [8] shares this target. The experiment is described as follows: competitive ELISA; competitor 060. Here is the method: as §2
For experiment [9] the target is unchanged. The experiment is described as follows: competitive ELISA; competitor 074. Here is the method: as §2
The target is the same in experiment [10]. The experiment is described as follows: competitive ELISA; competitor HEFLB. Here is the method:
as §2

Numbering of substitutions follows the chain as printed.

T2 sequence (P78324 other isoform, or with tags, fused parts or gaps): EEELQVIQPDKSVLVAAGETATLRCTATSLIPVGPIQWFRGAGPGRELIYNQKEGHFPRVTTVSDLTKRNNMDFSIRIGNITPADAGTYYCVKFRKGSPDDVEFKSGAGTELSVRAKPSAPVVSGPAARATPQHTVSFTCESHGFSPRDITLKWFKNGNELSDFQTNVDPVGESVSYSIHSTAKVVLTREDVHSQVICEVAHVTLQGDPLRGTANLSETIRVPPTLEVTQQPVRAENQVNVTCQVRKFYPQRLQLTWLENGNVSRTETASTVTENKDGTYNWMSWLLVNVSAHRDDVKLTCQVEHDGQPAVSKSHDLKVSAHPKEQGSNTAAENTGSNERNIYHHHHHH

B1: chimeric antibody 001c (antibody, V domains shown)
VH: EVKLEESGGGLVQPGGSMKLSCVASGFTFRNYWMNWVRQSPERGLEWIAEISLKSNTYATHYAESVKGRFAISRDGSKSSFYLQMNDLRAEDTGIYYCTTFTKVVADWHLDVWGAGTTVTVSS
VL: DVLMTQTPLSLPVSLGDQASISCRSSQNIVHSNGNTYLEWYLQKPGQSPKLLIYKVSNRFSGVPDRFSGSGSGTDFTLRISRVEAEDLGVYYCFQGSHVPFTFGSGTKLEIK
B1: the “MFI at 10 nM” value in experiment [1] worked out at 24900 MFI. Also, in [2], the Kd was determined as 20.6 nM, the koff worked out at 0.000816 s⁻¹ and the kon worked out at 39700 M⁻¹ s⁻¹. Moreover, in [3], the Kd was 11.4 nM, the off-rate constant (koff) turned out to be 0.000855 s⁻¹ and the on-rate constant (kon) was found to be 74900 M⁻¹ s⁻¹. In addition, in [4], the binding result is “no binding”.

B2: chimeric antibody 002c (antibody, V domains shown)
VH: B1 VH with K19I, S52T, G76D, A90P
VL: B1 VL with V56I, K112Q
In the case of B2, the “MFI at 10 nM” value in experiment [1] was 17100 MFI. In addition, in [2], the Kd stood at 28.3 nM, the koff was determined as 0.00146 s⁻¹ and the kon was 51600 M⁻¹ s⁻¹. In experiment [3], the Kd was found to be 16.1 nM, the koff was determined as 0.00148 s⁻¹ and the kon is 92000 M⁻¹ s⁻¹. Moreover, the binding result in experiment [4] is “no binding”.

B3: chimeric antibody 032c (antibody, V domains shown)
VH: B1 VH with K3R, A24V, S52T, G76D, A90P
VL: B1 VL with S14N
With B3, the “MFI at 10 nM” value in experiment [1] is 19000 MFI. Further, in experiment [2], the Kd turned out to be 14.7 nM, the koff came to 0.000774 s⁻¹ and the kon came to 52600 M⁻¹ s⁻¹. In experiment [3], the Kd came out at 8.92 nM, the koff turned out to be 0.000834 s⁻¹ and the kon was found to be 93500 M⁻¹ s⁻¹.

B4: reference antibody 29-AM4-5 (antibody, V domains shown)
VH: EVQLVESGGGLVQPGGSLRLSCAASGFNISYYFIHWVRQAPGKGLEWVASVYSSFGYTYYADSVKGRFTISADTSKNTAYLQMNSLRAEDTAVYYCARFTFPGLFDGFFGAYLGSLDYWGQGTLVTVSS
VL: DIQMTQSPSSLSASVGDRVTITCRASQSVSSAVAWYQQKPGKAPKLLIYSASSLYSGVPSRFSGSRSGTDFTLTISSLQPEDFATYYCQQAVNWVGALVTFGQGTKVEIK
Consider B4, for which the “MFI at 10 nM” value in experiment [1] was 27600 MFI. The “% Competition” value came to 97% in experiment [5]; 94% in experiment [6]; 97% in experiment [7]; 10% in experiment [8]; 4% in experiment [9]; 25% in experiment [10].

B5: chimeric antibody 060c (antibody, V domains shown)
VH: QVQLKESGPGLVAPSESLSITCTVSGFSLTNYDISWIRQSPGKGLEWLGVIWTGGDTNFNSAFMSRLSISKDKSKSQVFLKLNSLQTDDTAIYYCVRVQYFGGSYGPMDYWGQGISVTVSS
VL: DIQMTQASSYLSVSLGGRVTITCEASDHINDWLAWYQQTPGNAPRLLISGATSLETGVPSRFSGSGSGKDYTLSITSLQTEDIATYYCQQYWNTPLTFGAGTRLELK
Take B5: the binding result in experiment [1] is reported as “no binding (tested: 10 nM)”. Besides, in experiment [3], the equilibrium dissociation constant (Kd) is 1.49 nM, the koff was 0.000141 s⁻¹ and the kon is 94400 M⁻¹ s⁻¹. For the same molecule, in experiment [4], the binding result is “no binding”.

B6: chimeric antibody 074c (antibody, V domains shown)
VH: QVQLQQPRAELVKPGASVMLSCKASGYTFSSYWIHWVRQGPGQGLEWIGLIHPNSGNTDCSETFKNKATLTVDTSSSTAYMQLSSLASEDSAVYYCARDGASYDWFVHWGQGTLVTVSA
VL: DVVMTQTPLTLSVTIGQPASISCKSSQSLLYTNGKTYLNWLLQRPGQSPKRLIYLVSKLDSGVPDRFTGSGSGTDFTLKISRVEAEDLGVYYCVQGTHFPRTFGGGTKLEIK
In the case of B6, the “MFI at 10 nM” value in experiment [1] is 12200 MFI. In addition, in [2], the Kd stood at 25.2 nM, the koff was 0.000515 s⁻¹ and the kon worked out at 20400 M⁻¹ s⁻¹. Further, in experiment [3], the Kd stood at 4.4 nM, the koff was 0.000229 s⁻¹ and the kon came out at 52100 M⁻¹ s⁻¹. Besides, the binding result in experiment [4] is “no binding”.

B7: chimeric antibody 035c (antibody, V domains shown)
VH: QIQLVQSGPELRKPGETVKISCKASGYSFTNYAMNWVKQAPGKVLKWMGFINTYTGEPTYADDFKGRFAFSLETSASTAYLQINNLKNEDTATYFCTRTRGYYDFDGGAFDYWGQGTSLTVSS
VL: DIVMTQSQKFMSTSIGDRVSVTCKASQNVGTHLAWYQQKPGQSPKALIFSASYRYIGVPDRFTGSGSGTDFTLTITNVQSEDLAEYFCQQYNTYPLTFGAGTKLELK
With B7, the “MFI at 10 nM” value in experiment [1] came out at 24600 MFI. In addition, the Kd in experiment [2] was determined as 2.62 nM; in experiment [3] it was 1.11 nM; in experiment [4], 5270 nM. Further, the figures for the koff in experiment [2], in [3] and in experiment [4] were 0.000154 s⁻¹, 0.000203 s⁻¹ and 0.0247 s⁻¹, respectively. Also, the kon in experiment [2] amounted to 59000 M⁻¹ s⁻¹; in [3], 183000 M⁻¹ s⁻¹; in [4], 4690 M⁻¹ s⁻¹.

B8: chimeric antibody 055c (antibody, V domains shown)
VH: EVKLVESEGGLVQPGDSMKLSCTASGFTFSDYFMTWIRQVPEKGLEWIANVNYDGRSTYYLDSLKSRFIISRDNANNILYLQMSSLKSEDTATYYCAREGSQTPLYAVDYWGQGTSVTVSS
VL: DIVMTQSQKFMSTTVGDRVNITCKASQNVGTAVAWYQQKPGQSPKLLIYLASNRYTGVPDRFTGSGSGTDFTLTVSDMRSEDLADYFCQQYSIYPFTFGSGTKLEIK
Take B8: the “MFI at 10 nM” value in experiment [1] is 8060 MFI. In addition, in experiment [2], the Kd was 28.5 nM, the koff amounted to 0.00138 s⁻¹ and the kon came out at 48300 M⁻¹ s⁻¹. In experiment [3], the Kd amounted to 16.6 nM, the koff was 0.00141 s⁻¹ and the kon came out at 85100 M⁻¹ s⁻¹. Also, in experiment [4], the binding result is listed as “no binding”.

B9: chimeric antibody 050c (antibody, V domains shown)
VH: QIQLVQSGPELKKPGETVKISCKASGYTFTHYSMHWVKQAPGKGLKWMGWINTETAEPTYVDDFKGRFAFSLEASASTAFFQINNLKNEDTATYFCARGGLRQGDYWGQGTTLTVSS
VL: QIVLTQSPPIMSASPGEKVTLTCSATSSVSASYLYWFQQKPGSSPKLWIYSTSNLASGVPARFSGSGSGTSYSLTISNMEPADAASYFCHQWSSYPYTFGGGTKLEIK
Regarding B9, the “MFI at 10 nM” value in experiment [1] came out at 20500 MFI. In [2], the Kd turned out to be 4.72 nM, the koff came to 0.000529 s⁻¹ and the kon was 112000 M⁻¹ s⁻¹. Moreover, in [3], the equilibrium dissociation constant (Kd) came out at 3.07 nM, the koff worked out at 0.000774 s⁻¹ and the kon turned out to be 252000 M⁻¹ s⁻¹. Further, the binding result in experiment [4] is “no binding”.
